The values that follow come from patent US20240082414A1, “HUMAN TUMOR NECROSIS FACTOR ALPHA ANTIBODY GLUCOCORTICOID CONJUGATES” (Eli Lilly and Company, priority 2022, published 2024).

The target of assay [1] is human FcγRIIA_131H (CD32a) extracellular domain (human) (UniProt P12318). Put plainly: SPR (Biacore), antibody captured on Protein A, FcγR ECD as analyte, steady state, 25° C. In general terms: Surface plasmon resonance follows binding to a sensor surface in real time, without labels.
Assay [2] addresses human FcγRIIA_131R (CD32a) extracellular domain (human) (UniProt P12318). The description is as above.
The target of assay [3] is human FcγRIIb (CD32b) extracellular domain (human) (UniProt P31994). Described as above.
human FcγRIIb (CD32b) extracellular domain (human), sequence (P31994 43-217): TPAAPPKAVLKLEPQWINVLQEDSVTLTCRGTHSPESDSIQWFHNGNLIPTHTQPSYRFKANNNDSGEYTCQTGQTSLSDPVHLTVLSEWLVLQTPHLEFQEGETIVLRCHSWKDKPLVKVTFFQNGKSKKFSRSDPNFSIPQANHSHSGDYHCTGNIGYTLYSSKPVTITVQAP
Assay [4] deals with human FcγRIIIA_158F (CD16a) extracellular domain (human) (UniProt P08637). The assay is described as above.
human FcγRIIIA_158F (CD16a) extracellular domain (human), sequence (P08637 17-208): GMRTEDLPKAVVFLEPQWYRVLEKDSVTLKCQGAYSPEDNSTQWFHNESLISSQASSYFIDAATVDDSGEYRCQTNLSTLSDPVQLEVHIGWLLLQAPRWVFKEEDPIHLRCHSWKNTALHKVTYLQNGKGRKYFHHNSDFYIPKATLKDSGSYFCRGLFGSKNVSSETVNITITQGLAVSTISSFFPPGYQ
For assay [5], the target named is human FcγRI (CD64) extracellular domain (human) (UniProt P12314). Put plainly: SPR (Biacore), antibody captured on Protein A, FcγR ECD as analyte, 25° C.
human FcγRI (CD64) extracellular domain (human), sequence (P12314 16-292): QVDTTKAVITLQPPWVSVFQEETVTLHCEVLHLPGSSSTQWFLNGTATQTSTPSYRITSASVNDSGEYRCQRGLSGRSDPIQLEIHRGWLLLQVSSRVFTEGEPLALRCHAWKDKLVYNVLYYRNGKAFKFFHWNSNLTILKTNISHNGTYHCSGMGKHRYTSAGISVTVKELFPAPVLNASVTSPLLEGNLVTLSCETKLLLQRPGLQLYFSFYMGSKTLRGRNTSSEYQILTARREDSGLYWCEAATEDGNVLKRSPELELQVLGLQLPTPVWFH

human FcγRIIA_131R (CD32a) extracellular domain (human), sequence (P12318 34-217 H167R limits assumed): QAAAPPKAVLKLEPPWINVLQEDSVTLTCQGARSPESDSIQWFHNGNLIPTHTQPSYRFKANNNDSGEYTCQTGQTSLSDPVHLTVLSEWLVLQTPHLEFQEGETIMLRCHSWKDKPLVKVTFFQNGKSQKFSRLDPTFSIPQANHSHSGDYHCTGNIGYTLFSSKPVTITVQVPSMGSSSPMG
human FcγRIIA_131H (CD32a) extracellular domain (human), sequence (P12318 34-217): as the sequence (P12318 34-217 H167R limits assumed) above, with R134H counted along it

What is called Kd is the concentration at which binding is half-saturated. For the substance human IgG1 isotype control antibody, the equilibrium dissociation constant (Kd) in assay [1] was found to be 570 nM; in assay [2] it was 570 nM; in assay [3], 2810 nM; in assay [4], 820 nM; in assay [5], 0.0479 nM.
